From patent US20260103513A1 (HEFEI TG IMMUNOPHARMA, published 2026)

T1: TIGIT protein overexpressed on cells (Homo sapiens (Human), UniProt Q495A1 22-244)
T1 construct: also called CHO-K1-TIGIT
T1 sequence: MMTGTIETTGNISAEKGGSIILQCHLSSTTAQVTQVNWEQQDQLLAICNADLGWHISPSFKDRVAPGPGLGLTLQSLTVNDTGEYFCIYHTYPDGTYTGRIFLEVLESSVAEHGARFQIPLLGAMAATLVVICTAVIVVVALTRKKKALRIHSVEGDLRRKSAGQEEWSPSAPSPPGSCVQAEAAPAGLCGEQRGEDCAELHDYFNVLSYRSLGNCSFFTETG

T2: Human TIGIT-His tag fusion protein (human, UniProt Q495A1 22-141)
T2 construct: extracellular domain; Bought (Acro); also called TIGIT extracellular domain-His tag fusion protein; TIGIT protein; not shown: His tag
T2 sequence (looked up): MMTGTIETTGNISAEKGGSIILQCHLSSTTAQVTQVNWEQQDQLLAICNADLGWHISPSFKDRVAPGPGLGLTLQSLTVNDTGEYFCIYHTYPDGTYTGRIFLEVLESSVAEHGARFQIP


How the values were obtained:
[1] = molecular target: T1, TIGIT protein overexpressed on cells; test: flow cytometry on CHO-K1-TIGIT cells, binding percentage (%)
[2] = molecular target: T1, TIGIT protein overexpressed on cells; test: flow cytometry competition on CHO-K1-TIGIT cells; blocked ligand CD155-mIgG2a-Fc, binding percentage (%)
[3] = molecular target: T3, recombinant TIGIT extracellular domain-Fc fusion protein; test: SPR, Biacore T200, TIGIT-Fc amine-coupled on CM5, antibody injected, 1:1 Langmuir model
T3 construct: Covalently coupled to the CM5 chip in the Biacore assay; also called TIGIT-Fc
Description: The Biacore method is a well-established objective assay for detecting the affinity and kinetics between proteins. The TIGIT antibody of the present disclosure was analyzed using Biacore T200 to characterize its affinity and binding kinetics.
The TIGIT extracellular domain-Fc fusion protein (TIGIT-Fc) was covalently attached to a CM5 (GE) chip using a standard amino coupling method. A series of TIGIT antibodies diluted in PBS buffer at a concentration gradient was then injected in cycles, followed by regeneration with 10 mM NaOH solution. The antigen-antibody binding kinetics were monitored for 3 minutes, followed by dissociation kinetics for 10 minutes. The resulting data were analyzed using GE's BIAevaluation software in a 1:1 (Langmuir) binding model.

[4] = molecular target: T2, Human TIGIT-His tag fusion protein; test: ELISA, human TIGIT-His coated, HRP anti-human IgG, OD450
[5] = molecular target: T1, TIGIT protein overexpressed on cells; test: flow cytometry on 293T-TIGIT cells, Alexa-647 anti-human Fc, MFI
[6] = molecular target: T4, Cynomolgus monkey TIGIT-His tag fusion protein (cynomolgus monkey, UniProt A0A7N9I9V4 89-209); test: ELISA, cynomolgus TIGIT-His coated, HRP anti-human IgG, OD450
T4 construct: extracellular domain; Bought (Acro); also called TIGIT extracellular domain-His tag fusion protein; TIGIT protein; not shown: His tag

[7] = molecular target: T1, TIGIT protein overexpressed on cells; test: flow cytometry competition on 293T-TIGIT cells; blocked ligand CD155-mIgG2a-Fc, APC anti-mouse IgG2a, MFI
[8] = molecular target: T2, Human TIGIT-His tag fusion protein; test: competition ELISA on coated TIGIT-His; blocked ligand CD155-Biotin; the sheet does not name the species of the TIGIT-His

EC50 (read off the curve) [1] [µg/mL] | IC50 (read off the curve) [2] [µg/mL] | Kd [3] [nM] | koff [3] [s⁻¹] | kon [3] [M⁻¹ s⁻¹] | EC50 (read off the curve) [4] [µg/mL] | EC50 (read off the curve) [5] [µg/mL] | EC50 (read off the curve) [6] [µg/mL] | IC50 (read off the curve) [7] [µg/mL] | IC50 (read off the curve) [8] [µg/mL] | Binder
~0.1 | ~0.3 |  |  |  |  |  |  |  |  | 4.1D3 (antibody, mouse IgG2a, kappa, V domains shown, Comparator, made with mouse IgG2a heavy and mouse kappa light constant regions; also called 4.1D3-mIgG2a; 4.1D3 antibody) VH: EVQLQQSGPGLVKPSQTLSLTCAISGDSVSSNSAAWNWIRQSPSRGLEWLGKTYYRFKWYSDYAVSVKGRITINPDTSKNQFSLQLNSVTPEDTAVFYCTRESTTYDLLAGPFDYWGQGTLVTVSS VL: not shown
 |  | ≤ 0.00508 | ≤ 1e-06 | 197000 |  |  |  |  |  | H401LV2 (antibody, V domains shown, also called matured TIGIT antibody H401LV2) VH: QVQLQESGPGLVKPSQTLSLTCTVTGSSITSDYAWNWIRQFPGKKLEWMGYITYSGRTTYNPSLKSRITISRDTSKNQFSLKLSSVTAADTATYYCARWGLLRRYFDYWGQGTLLTVSS VL: DIVMTQSPSSMSTSVGDRVTITCRASQDVFNQVAWYQQKPGKSPKLLIYSASFRYTGVPDRFSGSGSGTDFTFTISSVQAEDFATYYCQQHYSTPLTFGAGTKLELK
 |  |  |  |  | ~0.04 | ~0.4 | ~0.02 | ~0.5 | ~0.8 | H401LV2-hIgG1 (antibody, Wild-type human IgG1 constant region, human kappa light chain (H401LV2-hK); also called TIGIT antibody H401LV2) heavy: not shown light: DIVMTQSPSSMSTSVGDRVTITCRASQDVFNQVAWYQQKPGKSPKLLIYSASFRYTGVPDRFSGSGSGTDFTFTISSVQAEDFATYYCQQHYSTPLTFGAGTKLELKRTVAAPSVFIFPPSDEQLKSGTASVVCLLNNFYPREAKVQWKVDNALQSGNSQESVTEQDSKDSTYSLSSTLTLSKADYEKHKVYACEVTHQGLSSPVTKSFNRGEC
 |  |  |  |  | ~0.04 |  | ~0.02 | ~0.5 | ~0.8 | H401LV2-hIgG4S228P (antibody, also called TIGIT antibody H401LV2) heavy: not shown light: DIVMTQSPSSMSTSVGDRVTITCRASQDVFNQVAWYQQKPGKSPKLLIYSASFRYTGVPDRFSGSGSGTDFTFTISSVQAEDFATYYCQQHYSTPLTFGAGTKLELKRTVAAPSVFIFPPSDEQLKSGTASVVCLLNNFYPREAKVQWKVDNALQSGNSQESVTEQDSKDSTYSLSSTLTLSKADYEKHKVYACEVTHQGLSSPVTKSFNRGEC
 |  |  |  |  | ~0.04 | ~0.6 | ~0.02 | ~0.5 | ~0.8 | H401LV2-hIgG1LALA (antibody, also called TIGIT antibody H401LV2) heavy: not shown light: DIVMTQSPSSMSTSVGDRVTITCRASQDVFNQVAWYQQKPGKSPKLLIYSASFRYTGVPDRFSGSGSGTDFTFTISSVQAEDFATYYCQQHYSTPLTFGAGTKLELKRTVAAPSVFIFPPSDEQLKSGTASVVCLLNNFYPREAKVQWKVDNALQSGNSQESVTEQDSKDSTYSLSSTLTLSKADYEKHKVYACEVTHQGLSSPVTKSFNRGEC
 |  | 5.06 | 0.000501 | 98900 |  |  | ~0.04 |  | ~0.8 | Hu4A501 (antibody, V domains shown, also called parental antibody Hu4A501; parent antibody Hu4A501) VH: QVQLQESGPGLVKPSQTLSLTCTVTGSSITSDYAWNWIRQFPGKKLEWMGYITYSGRTTYNPSLKSRITISRDTSKNQFSLKLSSVTAADTATYYCARWGLLRRYFDYWGQGTLLTVSS VL: DIVMTQSPSSMSTSVGDRVTITCRASQDVFTAVAWYQQKPGKSPKLLIYSASFRYTGVPDRFSGSGSGTDFTFTISSVQAEDFATYYCQQHYSTPLTFGAGTKLELKR
~0.05 | ~0.2 |  |  |  |  |  |  |  |  | H401LV2-mIgG2a (antibody, Mouse IgG2a constant region, mouse kappa light chain (H401LV2-mK); also called TIGIT antibody H401LV2-mIgG2a) heavy: QVQLQESGPGLVKPSQTLSLTCTVTGSSITSDYAWNWIRQFPGKKLEWMGYITYSGRTTYNPSLKSRITISRDTSKNQFSLKLSSVTAADTATYYCARWGLLRRYFDYWGQGTLLTVSSAKTTAPSVYPLAPVCGDTTGSSVTLGCLVKGYFPEPVTLTWNSGSLSSGVHTFPAVLQSDLYTLSSSVTVTSSTWPSQSITCNVAHPASSTKVDKKIEPRGPTIKPCPPCKCPAPNLLGGPSVFIFPPKIKDVLMISLSPIVTCVVVDVSEDDPDVQISWFVNNVEVHTAQTQTHREDYNSTLRVVSALPIQHQDWMSGKEFKCKVNNKDLPAPIERTISKPKGSVRAPQVYVLPPPEEEMTKKQVTLTCMVTDFMPEDIYVEWTNNGKTELNYKNTEPVLDSDGSYFMYSKLRVEKKNWVERNSYSCSVVHEGLHNHHTTKSFSRTPGK light: DIVMTQSPSSMSTSVGDRVTITCRASQDVFNQVAWYQQKPGKSPKLLIYSASFRYTGVPDRFSGSGSGTDFTFTISSVQAEDFATYYCQQHYSTPLTFGAGTKLELKRADAAPTVSIFPPSSEQLTSGGASVVCFLNNFYPKDINVKWKIDGSERQNGVLNSWTDQDSKDSTYSMSSTLTLTKDEYERHNSYTCEATHKTSTSPIVKSFNRNEC
~0.2 | ~0.2 |  |  |  |  |  |  |  |  | 22G2 (antibody, mouse IgG2a, kappa, V domains shown, Comparator, mouse IgG2a heavy and mouse kappa light constant regions; the printed heavy chain reads VVVAVSE (as in the D265A form) although it is named only mIgG2a; also called 22G2-mIgG2a; 22G2 antibody) VH: QVQLQESGPGLVKPSETLSLTCTVSGGSVSSGIYYWSWIRQPPGKGLEWIGYIYYSGSTNYNPSLKSRVTISVDTSKNQFSLKLSSVTAADTAVYYCARDYYVSGNYYNVDYYFFGVDVWGQGTTVTVSS VL: EIVLTQSPATLSLSPGERATLSCRASQSVSSYLAWYQQKPGQAPRLLIYDASNRATGIPARFSGSGSGTDFTLTISSLEPEDFAVYYCQQRSNWPPLFTFGPGTKVDIKR
